Article doi:10.1101/2023.10.30.564738 (bioRxiv, 2023)
Positions count from the first letter of the chain named. Names and notes keep the numbering of the source.

Biological target: Ndc80 complex (Ndc80-Flag:Nuf2:Spc24:Spc25) (S. cerevisiae, UniProt P40460 1-691; P33895 1-451; Q04477 1-213; P40014 1-221)
Test: SEC

Chain of Ndc80 complex (Ndc80-Flag:Nuf2:Spc24:Spc25) (P40460 whole entry, chain 1 of 4): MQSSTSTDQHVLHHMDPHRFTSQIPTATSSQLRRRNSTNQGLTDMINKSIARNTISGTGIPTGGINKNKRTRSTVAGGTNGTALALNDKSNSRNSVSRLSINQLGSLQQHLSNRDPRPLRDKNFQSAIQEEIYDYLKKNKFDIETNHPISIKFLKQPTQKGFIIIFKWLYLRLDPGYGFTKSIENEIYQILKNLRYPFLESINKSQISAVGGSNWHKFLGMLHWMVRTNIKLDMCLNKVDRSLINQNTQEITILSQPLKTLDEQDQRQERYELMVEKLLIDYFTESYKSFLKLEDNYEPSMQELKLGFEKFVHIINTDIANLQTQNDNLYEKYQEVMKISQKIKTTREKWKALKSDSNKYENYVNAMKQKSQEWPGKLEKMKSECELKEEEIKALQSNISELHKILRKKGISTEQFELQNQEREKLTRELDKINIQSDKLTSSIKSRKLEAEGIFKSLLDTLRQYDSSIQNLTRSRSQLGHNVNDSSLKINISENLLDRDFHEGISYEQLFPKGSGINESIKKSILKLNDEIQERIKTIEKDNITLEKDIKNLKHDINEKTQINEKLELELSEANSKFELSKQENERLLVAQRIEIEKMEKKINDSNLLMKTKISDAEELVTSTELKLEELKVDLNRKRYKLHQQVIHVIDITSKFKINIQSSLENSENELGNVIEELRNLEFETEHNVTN
Chain of Ndc80 complex (Ndc80-Flag:Nuf2:Spc24:Spc25) (P33895 whole entry, chain 2 of 4): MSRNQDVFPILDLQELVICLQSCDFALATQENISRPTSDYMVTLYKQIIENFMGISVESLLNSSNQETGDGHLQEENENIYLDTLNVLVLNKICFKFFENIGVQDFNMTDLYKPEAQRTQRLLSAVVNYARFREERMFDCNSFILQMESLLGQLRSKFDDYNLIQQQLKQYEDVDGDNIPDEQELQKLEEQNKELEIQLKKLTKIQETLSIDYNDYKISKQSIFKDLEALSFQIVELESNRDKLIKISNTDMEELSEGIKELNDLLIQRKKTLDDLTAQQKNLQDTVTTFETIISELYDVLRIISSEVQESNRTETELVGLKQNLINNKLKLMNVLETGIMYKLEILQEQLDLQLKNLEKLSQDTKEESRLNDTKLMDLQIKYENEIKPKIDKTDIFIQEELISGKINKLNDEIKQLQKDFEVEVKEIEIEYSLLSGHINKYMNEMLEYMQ
Chain of Ndc80 complex (Ndc80-Flag:Nuf2:Spc24:Spc25) (Q04477 whole entry, chain 3 of 4): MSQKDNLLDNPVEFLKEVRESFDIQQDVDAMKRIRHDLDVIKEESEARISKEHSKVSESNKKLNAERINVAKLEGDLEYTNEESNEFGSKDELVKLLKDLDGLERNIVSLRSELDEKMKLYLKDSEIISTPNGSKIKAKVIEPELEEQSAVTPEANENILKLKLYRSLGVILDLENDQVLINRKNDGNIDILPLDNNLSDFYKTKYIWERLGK
Chain of Ndc80 complex (Ndc80-Flag:Nuf2:Spc24:Spc25) (P40014 whole entry, chain 4 of 4): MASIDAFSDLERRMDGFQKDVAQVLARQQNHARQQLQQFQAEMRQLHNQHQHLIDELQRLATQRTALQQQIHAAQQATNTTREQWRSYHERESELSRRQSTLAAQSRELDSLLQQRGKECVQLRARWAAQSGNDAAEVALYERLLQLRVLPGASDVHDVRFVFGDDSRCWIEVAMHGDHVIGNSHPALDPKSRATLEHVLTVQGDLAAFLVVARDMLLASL

B1: StrepII-tagged full-length Mps1 (wild type) (natural protein, S. cerevisiae, UniProt P54199 1-764, looked up)
chain: MSTNSFHDYVDLKSRTNTRQFSDDEEFTTPPKLSNFGSALLSHTEKTSASEILSSHNNDKIANRLEEMDRSSSRSHPPPSMGNLTSGHTSTSSHSTLFGRYLRNNHQTSMTTMNTSDIEINVGNSLDKSFERIRNLRQNMKEDITAKYAERRSKRFLISNRTTKLGPAKRAMTLTNIFDEDVPNSPNQPINARETVELPLEDSHQTNFKETKRNTDYDSIDFGDLNPIQYIKKHNLPTSDLPLISQIYFDKQREENRQAALRKHSSRELLYKSRSSSSSLSSNNLLANKDNSITSNNGSQPRRKVSTGSSSSKSSIEIRRALKENIDTSNNSNFNSPIHKIYKGISRNKDSDSEKREVLRNISINANHADNLLQQENKRLKRSLDDAITNENINSKNLEVFYHRPAPKPPVTKKVEIVEPAKSASLSNNRNIITVNDSQYEKIELLGRGGSSRVYKVKGSGNRVYALKRVSFDAFDDSSIDGFKGEIELLEKLKDQKRVIQLLDYEMGDGLLYLIMECGDHDLSQILNQRSGMPLDFNFVRFYTKEMLLCIKVVHDAGIVHSDLKPANFVLVKGILKIIDFGIANAVPEHTVNIYRETQIGTPNYMAPEALVAMNYTQNSENQHEGNKWKVGRPSDMWSCGCIIYQMIYGKPPYGSFQGQNRLLAIMNPDVKIPFPEHTSNNEKIPKSAIELMKACLYRNPDKRWTVDKVLSSTFLQPFMISGSIMEDLIRNAVRYGSEKPHISQDDLNDVVDTVLRKFADYKI
- binding result: binds

B2: StrepII-tagged full-length Mps1^bp (R151D R152D R155D) (natural protein, S. cerevisiae, UniProt P54199 1-764, looked up)
chain: B1 chain with R151D, R152D, R155D
- binding result: binds
